Test results as given in patent US20090118184A1 (UNIVERSITY OF ROCHESTER, published 2009).
Numbering of substitutions follows the chain as printed.

Assays:
Experiment in all cases: cell-based or functional assay
[1] = target: T1, factor VIIIa A1/A3C1C2 dimer, R1966A (human, UniProt P00451 20-391; P00451 1709-2351)
T1 sequence 1: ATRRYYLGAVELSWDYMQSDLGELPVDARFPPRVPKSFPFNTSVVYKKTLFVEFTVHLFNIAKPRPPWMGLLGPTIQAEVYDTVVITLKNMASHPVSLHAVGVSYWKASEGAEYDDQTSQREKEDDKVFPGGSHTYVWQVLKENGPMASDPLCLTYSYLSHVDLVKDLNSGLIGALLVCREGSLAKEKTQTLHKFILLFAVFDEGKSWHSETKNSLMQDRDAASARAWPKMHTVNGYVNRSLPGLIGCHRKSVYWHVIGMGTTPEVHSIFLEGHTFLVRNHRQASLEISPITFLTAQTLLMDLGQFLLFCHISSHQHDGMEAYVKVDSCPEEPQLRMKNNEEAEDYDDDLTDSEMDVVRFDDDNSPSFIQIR
T1 sequence 2: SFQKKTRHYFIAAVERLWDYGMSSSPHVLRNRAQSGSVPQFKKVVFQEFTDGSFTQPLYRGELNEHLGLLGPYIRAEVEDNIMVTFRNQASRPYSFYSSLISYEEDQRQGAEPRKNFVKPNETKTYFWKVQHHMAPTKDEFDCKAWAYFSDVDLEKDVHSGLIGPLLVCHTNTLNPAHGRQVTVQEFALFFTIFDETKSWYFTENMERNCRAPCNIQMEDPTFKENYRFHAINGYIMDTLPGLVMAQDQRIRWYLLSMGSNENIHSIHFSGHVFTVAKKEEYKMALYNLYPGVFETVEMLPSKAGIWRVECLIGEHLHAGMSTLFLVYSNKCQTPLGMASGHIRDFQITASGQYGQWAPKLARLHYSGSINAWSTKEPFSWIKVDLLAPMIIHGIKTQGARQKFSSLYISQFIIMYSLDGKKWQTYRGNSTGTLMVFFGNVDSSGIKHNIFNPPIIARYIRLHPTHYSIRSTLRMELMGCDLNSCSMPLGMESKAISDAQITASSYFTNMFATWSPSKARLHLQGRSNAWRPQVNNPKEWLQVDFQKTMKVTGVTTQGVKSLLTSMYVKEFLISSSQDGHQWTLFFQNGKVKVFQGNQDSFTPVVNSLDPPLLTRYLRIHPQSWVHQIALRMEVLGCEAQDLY

[2] = target: T2, factor VIIIa A1/A3C1C2 dimer, S1949A (human, UniProt P00451 20-391; P00451 1709-2351)
T2 sequence 1: T1 sequence 1
T2 sequence 2: T1 sequence 2 with S260A, A277R

[3] = target: T3, factor VIIIa A1/A3C1C2 dimer, D302A (human, UniProt P00451 20-391; P00451 1709-2351)
T3 chain 1: T1 sequence 1 with D302A
T3 chain 2: T1 sequence 2 with A277R

B1: factor VIIIa A2 subunit, wild type (other)
chain: SVAKKHPKTWVHYIAAEEEDWDYAPLVLAPDDRSYKSQYLNNGPQRIGRKYKKVRFMAYTDETFKTREAIQHESGILGPLLYGEVGDTLLIIFKNQASRPYNIYPHGITDVRPLYSRRLPKGVKHLKDFPILPGEIFKYKWTVTVEDGPTKSDPRCLTRYYSSFVNMERDLASGLIGPLLICYKESVDQRGNQIMSDKRNVILFSVFDENRSWYLTENIQRFLPNPAGVQLEDPEFQASNIMHSINGYVFDSLQLSVCLHEVAYWYILSIGAQTDFLSVFFSGYTFKHKMVYEDTLTLFPFSGETVFMSMENPGLWILGCHNSDFRNRGMTALLKVSSCDKNTGDYYEDSYEDISAYLLSKNNAIEPR
Factor VIIIa decay rate relative to wild type, FIXa (+) [1]: 1.44 relative to wild type | Factor VIIIa decay rate, FIXa (+) [1]: 0.0163 min⁻¹ | Factor VIIIa decay rate relative to wild type, FIXa (+) [2]: 1.14 relative to wild type | Factor VIIIa decay rate, FIXa (+) [2]: 0.0129 min⁻¹ | Factor VIIIa decay rate relative to wild type, FIXa (+) [3]: 0.43 relative to wild type | Factor VIIIa decay rate, FIXa (+) [3]: 0.0049 min⁻¹
